# Test results taken from the RNAGym collection of RNA variant scans (doi:10.1073/pnas.2313332121).
# This sample holds only a part of the variants without activity.
# B1: TPR 5TU (parent)
# chain: GGAUCUUCUCGAUCUAACAAAAAAGACAAAUCUGCCACAAAGCUUGAGAGCAUCUUCGGAUGCAGAGGCGGCAGCCUUCGGUGGCGCGAUAGCGCCAACGUUCUCAACUAUGACACGCAAAACGCGUGCUCCGUUGAAUGGAGUUUAUCAUG
# Variants of: B1
# Experiment: polymerase ribozyme fitness, log enrichment relative to wild type (log ratio); higher = more active; in vitro selection for triplet polymerase activity
# How it was run: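 Mutant libraries were PCR-built and transcribed for each subunit of a heterodimeric triplet polymerase ribozyme and selected for one round in triplicate at −7 °C, frozen, before gel excision of extended constructs and streptavidin-bead capture. Input and output libraries were Illumina-sequenced, keeping genotypes with ≥10 input reads and ≥1 read per output. Fitness is a logarithmic ratio of genotype to wild-type enrichment, in base 2, using inverse-variance-weighted replicate averages.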
row,Variant,polymerase ribozyme fitness (log ratio)
1,GGAUCUUCUCGAUCUAACAAAAAAGACAAAUCUGCCACAAAGCUUGAGAGCAUCUUCGGAUGCAGAGGCGGCAGCCUUCGGUUGCGCGAUAGCGCCAACGUUCUCAACUAUGACACGCAACACGCGUGCUCCGUUGAAUGGUGUUUAUCAUG [G83U A121C A142U],-1.46
2,GGAUCUUCUCGAUCUAACAAAAAAGACAAAUCUGCCACAAAGCUUGAGAGCAUCUUCGGAUGCAGAGGCGGCAGCCUUCGGUUGCGCGAUAGCGCCAACGUUCUCAACUAUGACACGCAAAACGCAUGCUCCGUUGAAUGGAGUUUAUCAUG [G83U G126A],-0.669
3,GGAUCUUCUCGAUCUAACAAAAAAGACAAAUCUGCCACAAAGCUUGAGAGCAUCUUCGGAUGCAGAGGCGGCAGCCUUCGGUUGCGCGAUAGUGCCAACGUUCUCAACUAUGACACGCAAAACGCGUGCUCCGUUGAAUGGAGUUUAUCAUG [G83U C93U],-2.69
4,GGAUCUUCUCGAUCUAACAAAAAAGACAAAUCUGCCACAAAGCUUGAGAGCAUCUUCGGAUGCAGAGGCGGCAGCCUUCGGUUGCGCGAUAGCGGCAACGUUCUCAACUAUGACACGCAAAACGCUUGCUCCGUUGAAUGGAGUUUAUCAUG [G83U C95G G126U],-1.85
5,GGAUCUUCUCGAUCUAACAAAAAAGACAAAUCUGCCACAAAGCUUGAGAGCAUCUUCGGAUGCAGAGGCGGCAGCCUUCGGUUGCGCGAUAGCGCCAAGGUUCUCAACUAUGACACGCAAAACGCGUGCUCCGUUGAAUGGAGUGUAUCAUG [G83U C99G U145G],≤ -4.2
6,GGAUCUUCUCGAUCUAACAAAAAAGACAAAUCUGCCACAAAGCUUGAGAGCAUCUUCGGAUGCAGAGGCGGCAGCCUUCGGUUGCGCGAUAGCGCCAACGUUCUCAACUAUGACACUCAAAACGCGUGCUCCGUUGAAUGGAGUUUAUCAUG [G83U G117U],-0.498
7,GGAUCUUCUCGAUCUAACAAAAAAGACAAAUCUGCCACAAAGCUUGAGAGCAUCUUCGGAUGCAGAGGCGGCAGCCUUCGGUUGCGCGAUAGCGCCAACGUUCUCAACUAUGACACGCAUAACGCGUGCUCCGUUGCAUGGAGUUUAUCAUG [G83U A120U A137C],-3.31
8,GGAUCUUCUCGAUCUAACAAAAAAGACAAAUCUGCCACAAAGCUUGAGAGCAUCUUCGGAUGCAGAGGCGGCAGCCUUCGGUUGCGCGAUACCGCCAACGUUCUCAACUAAGACACGCAAAACGCGUGCUCCGUUGAAUGGAGUUUAUCAUG [G83U G92C U111A],≤ -4.2
9,GGAUCUUCUCGAUCUAACAAAAAAGACAAAUCUGCCACAAAGCUUGAGAGCAUCUUCGGAUGCAGAGGCGGCAGCCUUCGGUUGCGCGAUAGCGCCAACUUUAUCAACUAUGACACGCAAAACGCGUGCUUCGUUGAAUGGAGUUUAUCAUG [G83U G100U C103A C131U],≤ -4.2
10,GGAUCUUCUCGAUCUAACAAAAAAGACAAAUCUGCCACAAAGCUUGAGAGCAUCUUCGGAUGCAGAGGCGGCAGCCUUCGGUUGCGCGAUAGCGCCAACUUUCUCAACUAUGACACGCAAAACGCGUGCUCCGUUGAAUGGAGUUUAUCAUG [G83U G100U],-3.9
11,GGAUCUUCUCGAUCUAACAAAAAAGACAAAUCUGCCACAAAGCUUGAGAGCAUCUUCGGAUGCAGAGGCGGCAGCCUUCGGUUGCGCGAUAACGCCAACGUUCUCAACUAUGACACGCAAAACGGGUGCUCCGUUGAGUGGAGUUUAUCAAG [G83U G92A C125G A138G U151A],≤ -4.2
12,GGAUCUUCUCGAUCUAACAAAAAAGACAAAUCUGCCACAAAGCUUGAGAGCAUCUUCGGAUGCAGAGGCGGCAGCCUUCGGUUGCGCGAUAGCGCCAACGUUCUCAACUAUGACACGCAAAACGCGUGCUCCGUUGAAUGGAUUUUAUCAUG [G83U G143U],-1.68
13,GGAUCUUCUCGAUCUAACAAAAAAGACAAAUCUGCCACAAAGCUUGAGAGCAUCUUCGGAUGCAGAGGCGGCAGCCUUCGGUUGCGCGAUAGCGCCAACGUUCUGAGCUAUGACACGCAAAACGCGUGCUCCGUGGAAUGGAGUUUAUCAUC [G83U C105G A107G U135G G152C],≤ -4.2
14,GGAUCUUCUCGAUCUAACAAAAAAGACAAAUCUGCCACAAAGCUUGAGAGCAUCUUCGGAUGCAGAGGCGGCAGCCUUCGGUUGCGCGAUAGCGCCAACGUUCUCAUCUAUGACACGCAAAACGCGUGCUCCGUUGAAUGUAGUUUAUCAUG [G83U A107U G141U],≤ -4.2
15,GGAUCUUCUCGAUCUAACAAAAAAGACAAAUCUGCCACAAAGCUUGAGAGCAUCUUCGGAUGCAGAGGCGGCAGCCUUCGGUUGCGCGAUAGCGCCAACGUCCUCAACUAUGACACGCAAAACGCGUGCUCCGUUGAAUGGAGUUUAUCAUG [G83U U102C],-1.16
16,GGAUCUUCUCGAUCUAACAAAAAAGACAAAUCUGCCACAAAGCUUGAGAGCAUCUUCGGAUGCAGAGGCGGCAGCCUUCGGUUGCGCGAUAGCCCCAACGUUCUCAACUAUGACAUGCAAAACGCGUGCUCCGUUGAAUGGAGUUUAUCAUG [G83U G94C C116U],-2.08
17,GGAUCUUCUCGAUCUAACAAAAAAGACAAAUCUGCCACAAAGCUUGAGAGCAUCUUCGGAUGCAGAGGCGGCAGCCUUCGGUUGCGCUAUAGCGCCAACGUUCUCAACUAUGACACGCAAAACGCGUGCUCCGUUGAAUGGAGUUUAUCUUG [G83U G88U A150U],-3.49
18,GGAUCUUCUCGAUCUAACAAAAAAGACAAAUCUGCCACAAAGCUUGAGAGCAUCUUCGGAUGCAGAGGCGGCAGCCUUCGGUUGCGCGAUAGCGCCAACGUUCUCAACUAUGACACGCAAAACGCGUGCUCCGUUGAAUGGAGUUUAUUAUG [G83U C149U],-1.76
19,GGAUCUUCUCGAUCUAACAAAAAAGACAAAUCUGCCACAAAGCUUGAGAGCAUCUUCGGAUGCAGAGGCGGCAGCCUUCGGUUGCGUGAUAGCGCCAACGUUCUCAACUAUGACACGCAAAACGCGUGCUCCGUUGAAUGGAGUUUAUCAUG [G83U C87U],-1.25
